Laboratory results from article PMC6100724, “Proteome‐wide analysis of phospho‐regulated PDZ domain interactions” (Molecular Systems Biology, 2018).
Square brackets hold non-standard residues; d marks the D form. Ends that are not written are not given here. * marks the point of attachment. FITC = O=C1OC2(c3ccc(O)cc3Oc3cc(O)ccc32)c2ccc(NC(=S)*)cc21; pS = N[C@@H](COP(=O)(O)O)C(=O)O

Columns and labels:
Conditions in all cases: both partners purified
[1] = biological target: T1, Scribble PDZ1 (human, aa 719-829) (human, UniProt Q14160 719-829); assay: MST; FITC-labelled peptide fixed at 25-50 nM, PDZ domain titrated (1:1 dilution series); 50 mM Tris-HCl pH 7.4, 0.1% Tween-20; thermophoresis and T-Jump signal; triplicate
T1 construct: Scribble, human, PDZ1, aa 719-829 in pETM-11; The His tag was cleaved only for the NMR samples; nothing is said of cleavage for MST and ITC; also called Scribble PDZ1 wild type; source: E. coli BL21 Gold (DE3), purified (Ni2+ Sepharose)

[2] = biological target: T2, DLG1 PDZ2 (human, aa 311-407) (human, UniProt Q12959 311-407); assay: as above
T2 construct: DLG1, human, PDZ2, aa 311-407 in a modified pRSET vector; also called DLG PDZ2; source: E. coli BL21 Gold (DE3), purified (Ni2+ Sepharose)

[3] = biological target: T3, SHANK1 PDZ (human, aa 652-761) (human, UniProt Q9Y566 652-761); assay: MST; FITC-labelled peptide fixed at 25-50 nM, untagged SHANK1 PDZ titrated (1:1 dilution series); PBS, 10 mM MgCl2, 0.05% Tween-20; thermophoresis and T-Jump signal; triplicate
T3 construct: Shank1, human, PDZ, aa 652-761 in pETM-33; source: E. coli BL21 Gold (DE3), purified (Ni2+ Sepharose; tag removed with HRV3C protease)
T3 sequence (looked up): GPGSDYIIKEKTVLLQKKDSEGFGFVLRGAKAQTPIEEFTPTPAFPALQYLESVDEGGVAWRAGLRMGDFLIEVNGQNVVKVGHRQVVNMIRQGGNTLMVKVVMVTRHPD

[4] = biological target: T4, DLG1 PDZ2 (His-tagged, aa 311-407) (human, UniProt Q12959 311-407); assay: MST; FITC-labeled peptide fixed at 25-50 nM, protein (Scribble PDZ1 or DLG1 PDZ2) in a 1:1 dilution series; 50 mM Tris-HCl pH 7.4, 0.1% Tween-20; thermophoresis and T-Jump signal; n = 3
T4 construct: human DLG1, PDZ2, aa 311-407, in a modified pRSET vector; also called DLG PDZ2; source: E. coli BL21 Gold (DE3), purified (Ni2+ Sepharose), dialysed

[5] = biological target: T1, Scribble PDZ1 (human, aa 719-829); assay: ITC; iTC200, 25°C, 20 mM HEPES pH 7.4; protein 50-100 µM in the cell, 0.64-3 mM peptide in the syringe; single-site fit, stoichiometry fixed to 0.8-1.1; triplicate
[6] = biological target: T5, Scribble PDZ1 R762A (human, UniProt Q14160 719-829, R762A); assay: as above
T5 construct: Scribble, human, PDZ1, aa 719-829 in pETM-11, with R762A; source: E. coli BL21 Gold (DE3), purified (Ni2+ Sepharose)

[7] = biological target: T6, Scribble PDZ1 R762A/A743R (human, UniProt Q14160 719-829, A743R | R762A); assay: as above
T6 construct: Scribble, human, PDZ1, aa 719-829 in pETM-11, with R762A and A743R; also called R762A/A743R mutant; source: E. coli BL21 Gold (DE3), purified (Ni2+ Sepharose)

[8] = biological target: T7, Scribble PDZ1 (His-tagged, aa 719-829) (human, UniProt Q14160 719-829); assay: ITC; iTC200, 25°C, 20 mM HEPES pH 7.4; protein 50-100 μM in the cell, peptide 0.64-3 mM in the syringe; single-site fit, stoichiometry fixed to 0.8-1.1; n = 3
T7 construct: human Scribble, PDZ1, aa 719-829, in pETM-11; Used for MST and ITC; removal of the His tag is told only for the NMR samples; also called Scribble PDZ1 wild type; source: E. coli BL21 Gold (DE3), purified (Ni2+ Sepharose), dialysed

[9] = biological target: T8, Scribble PDZ1 R762A/A743R (human, UniProt Q14160 719-829, R762A | A743R); assay: as above
T8 construct: human Scribble, PDZ1, aa 719-829, A743R introduced in the background of R762A; also called R762A/A743R mutant; source: E. coli BL21 Gold (DE3), purified (Ni2+ Sepharose), dialysed

[10] = biological target: T9, DLG1 PDZ2 (human DLG1 PDZ2 aa 311-407) (human, UniProt Q12959 311-407); assay: MST; FITC-labeled peptide fixed at 25-50 nM, DLG1 PDZ2 titrated (1:1 dilution series); 50 mM Tris-HCl pH 7.4, 0.1% Tween-20; KD from thermophoresis and T-Jump signal; n = 3
T9 construct: Disks large homolog 1 (DLG1), human, second PDZ domain, aa 311-407, in a modified pRSET vector (Chi et al, 2009); removal of the His tag is told only for the NMR sample of Scribble PDZ1 and for SHANK1 PDZ; also called DLG PDZ2; source: E. coli BL21 Gold (DE3), purified (Ni2+ Sepharose), dialyzed into 50 mM Tris-HCl pH 7.4

[11] = biological target: T7, Scribble PDZ1 (His-tagged, aa 719-829); assay: MST; FITC-labeled peptide fixed at 25-50 nM, protein (Scribble PDZ1 or DLG1 PDZ2) in a 1:1 dilution series; 50 mM Tris-HCl pH 7.4, 0.1% Tween-20; thermophoresis and T-Jump signal; n = 3
[12] = biological target: T10, Scribble PDZ1 R801A (human, UniProt Q14160 719-829, R801A); assay: ITC; iTC200, 25°C, 20 mM HEPES pH 7.4; protein 50-100 µM in the cell, 0.64-3 mM peptide in the syringe; single-site fit, stoichiometry fixed to 0.8-1.1; triplicate
T10 construct: Scribble, human, PDZ1, aa 719-829 in pETM-11, with R801A (text, methods and primers); source: E. coli BL21 Gold (DE3), purified (Ni2+ Sepharose)

[13] = biological target: T11, Scribble PDZ1 K746A (human, UniProt Q14160 719-829, K746A); assay: as above
T11 construct: Scribble, human, PDZ1, aa 719-829 in pETM-11, with K746A; source: E. coli BL21 Gold (DE3), purified (Ni2+ Sepharose)

[14] = biological target: T12, Scribble PDZ1 A743R (human, UniProt Q14160 719-829, A743R); assay: as above
T12 construct: Scribble, human, PDZ1, aa 719-829 in pETM-11, with A743R; the text describes A743R only in the R762A background; source: E. coli BL21 Gold (DE3), purified (Ni2+ Sepharose)
T12 sequence (Q14160 719-829 A743R): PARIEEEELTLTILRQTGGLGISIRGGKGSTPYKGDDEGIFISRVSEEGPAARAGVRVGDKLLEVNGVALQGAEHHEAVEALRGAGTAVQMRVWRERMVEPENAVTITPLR

T9 sequence (Q12959 311-407): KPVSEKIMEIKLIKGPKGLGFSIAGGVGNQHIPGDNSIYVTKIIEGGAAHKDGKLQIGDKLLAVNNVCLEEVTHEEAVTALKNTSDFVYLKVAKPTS
T2 sequence (Q12959 311-407): as above
T5 sequence (Q14160 719-829 R762A): as the sequence (Q14160 719-829 A743R) above, with R25A, R44A counted along it
T7 sequence (Q14160 719-829): as the sequence (Q14160 719-829 A743R) above, with R25A counted along it
T1 sequence (Q14160 719-829): as the sequence (Q14160 719-829 A743R) above, with R25A counted along it
T6 sequence (Q14160 719-829 A743R/R762A): as the sequence (Q14160 719-829 A743R) above, with R44A counted along it
T8 sequence (Q14160 719-829 A743R/R762A): as the sequence (Q14160 719-829 A743R) above, with R44A counted along it
T4 sequence (Q12959 311-407): as the sequence (Q12959 311-407) above
T11 sequence (Q14160 719-829 K746A): as the sequence (Q14160 719-829 A743R) above, with R25A, K28A counted along it
T10 sequence (Q14160 719-829 R801A): as the sequence (Q14160 719-829 A743R) above, with R25A, R83A counted along it

B1: FITC-RLTETRL (RPS6KA2 peptide, phosphomimetic at p-3) (peptide)
peptide: {FITC}-RLTETRL
notes: C-terminal seven residues of RPS6KA2, human, with S730E; also called Mimetic RPS6KA2; source: synthetic peptide, bought: GeneCust
Kd [1]: 0.7 µM
Kd [2]: 14 µM
Kd [3]: 62 µM

B2: FITC-HTNETSL (MCC peptide, unphosphorylated) (peptide)
peptide: {FITC}-HTNETSL
notes: C-terminal peptide of human MCC (colorectal mutant cancer protein); also called wild-type MCC peptide; source: synthetic peptide, bought: GeneCust
Kd [4]: 6.4 µM

B3: MCC peptide RPHTNETSL (unphosphorylated) (peptide)
peptide: RPHTNETSL
notes: C-terminal nine residues of MCC (colorectal mutant cancer protein), human; source: synthetic peptide, bought: GeneCust
Kd [5]: 4.4 µM
Kd [6]: 11.3 µM
Kd [7]: 5.8 µM

B4: FITC-RLTSTRL (RPS6KA2 peptide, unphosphorylated) (peptide)
peptide: {FITC}-RLTSTRL
notes: C-terminal seven residues of RPS6KA2, human; source: synthetic peptide, bought: GeneCust
Kd [1]: 8.9 µM
Kd [2]: 95 µM
Kd [3]: 4.5 µM

B5: RPHTNETpSL (MCC peptide, phosphorylated at p-1, unlabelled) (peptide)
peptide: RPHTNET[pS]L
notes: C-terminal peptide of human MCC; also called phosphorylated MCC; source: synthetic peptide, bought: GeneCust
fold lower KD than for the unphosphorylated peptide [8]: 2 fold
binding result [9]: binds

B6: FITC-HTNETpSL (MCC peptide, p-1 phosphorylated) (peptide)
peptide: {FITC}-HTNET[pS]L
notes: C-terminal seven residues of MCC, human; also called pMCC; source: synthetic peptide, bought: GeneCust
Kd [1]: 0.6 µM
Kd [3]: 47 µM

B7: FITC-RLTpSTRL, p-3 phosphorylated RPS6KA2 peptide (peptide)
peptide: {FITC}-RLT[pS]TRL
notes: also called RPS6KA2 Phosphorylated; source: synthetic peptide (GeneCust)
Kd [10]: 72 µM

B8: FITC-KRpSFIESNV, p-6 phosphorylated TANC1 peptide (peptide)
peptide: {FITC}-KR[pS]FIESNV
notes: also called TANC1 Phosphorylated; source: synthetic peptide (GeneCust)
Kd [10]: 6.1 µM

B9: FITC-HTNETpSL (MCC peptide, phosphorylated at p-1) (peptide)
peptide: {FITC}-HTNET[pS]L
notes: C-terminal peptide of human MCC; also called pMCC; source: synthetic peptide, bought: GeneCust
Kd [4]: 57 µM

B10: FITC-RLTpSTRL (RPS6KA2 peptide, p-3 phosphorylated) (peptide)
peptide: {FITC}-RLT[pS]TRL
notes: C-terminal seven residues of RPS6KA2, human; the methods give pS at this position; also called pRPS6KA2; source: synthetic peptide, bought: GeneCust
Kd [1]: 1.7 µM
Kd [2]: 72 µM
Kd [3]: 16 µM

B11: MKRLTSTRL (RPS6KA2 peptide, unphosphorylated, unlabelled) (peptide)
peptide: MKRLTSTRL
notes: C-terminal peptide of human RPS6KA2; also called unphosphorylated RPS6KA2; unphosphorylated ligand; source: synthetic peptide, bought: GeneCust
binding result [9]: binds

B12: FITC-labeled RPS6KA1 peptide, p-3 phosphorylated (VRKLPpSTTL) (peptide)
peptide: VRKLP[pS]TTL
modifications: also: FITC label, position not given here
notes: C-terminal tail of human RPS6KA1; also called phosphorylated RPS6KA1; source: synthetic peptide (FITC-labeled)
Kd [11]: 0.39 µM

B13: FITC-HTNETEL (MCC peptide, phosphomimetic at p-1) (peptide)
peptide: {FITC}-HTNETEL
notes: also called Mimetic MCC; source: synthetic peptide, bought: GeneCust
Kd [1]: 1.1 µM
Kd [2]: 21 µM
Kd [3]: 52 µM

B14: RPS6KA2 peptide MKRLTSTRL (unphosphorylated) (peptide)
peptide: MKRLTSTRL
notes: C-terminal nine residues of RPS6KA2, human; source: synthetic peptide, bought: GeneCust
Kd [12]: 28 µM
Kd [13]: 10 µM
Kd [5]: 18 µM
Kd [6]: 9.7 µM
Kd [7]: 60 µM
Kd [14]: 15 µM

B15: MCC peptide RPHTNETpSL (p-1 phosphorylated) (peptide)
peptide: RPHTNET[pS]L
notes: C-terminal nine residues of MCC (colorectal mutant cancer protein), human; also called pMCC; source: synthetic peptide, bought: GeneCust
Kd [5]: 2.6 µM
Kd [6]: 25 µM
Kd [7]: 14 µM

B16: FITC-RLTETRL, phosphomimetic (p-3) RPS6KA2 peptide (peptide)
peptide: {FITC}-RLTETRL
notes: also called RPS6KA2 Mimetic; source: synthetic peptide (GeneCust)
Kd [10]: 14 µM

B17: FITC-KRpSFIESNV (TANC1 peptide, p-6 phosphorylated) (peptide)
peptide: {FITC}-KR[pS]FIESNV
notes: C-terminal nine residues of TANC1, human; also called pTANC1; source: synthetic peptide, bought: GeneCust
Kd [1]: 101 µM
Kd [2]: 6.1 µM

B18: FITC-KREFIESNV (TANC1 peptide, phosphomimetic at p-6) (peptide)
peptide: {FITC}-KREFIESNV
notes: also called Mimetic TANC1; source: synthetic peptide, bought: GeneCust
Kd [1]: 52 µM
Kd [2]: 5.1 µM

B19: RPHTNETSL (MCC peptide, unphosphorylated, unlabelled) (peptide)
peptide: RPHTNETSL
notes: C-terminal peptide of human MCC; also called unphosphorylated MCC; source: synthetic peptide, bought: GeneCust
binding result [9]: binds

B20: FITC-HTNETSL (MCC peptide, unphosphorylated) (peptide)
peptide: {FITC}-HTNETSL
notes: C-terminal seven residues of MCC, human; source: synthetic peptide, bought: GeneCust
Kd [1]: 1.8 µM
Kd [3]: 15 µM

B21: FITC-RLTSTRL, unphosphorylated RPS6KA2 peptide (peptide)
peptide: {FITC}-RLTSTRL
notes: C-terminal peptide of human RPS6KA2 (RLTSTRL-coo-); also called RPS6KA2 Unphosphorylated; source: synthetic peptide (GeneCust)
Kd [10]: 95 µM

B22: RPS6KA2 peptide MKRLTpSTRL (p-3 phosphorylated) (peptide)
peptide: MKRLT[pS]TRL
notes: C-terminal nine residues of RPS6KA2, human; also called pRPS6KA2; phospho-RPS6KA2; source: synthetic peptide, bought: GeneCust
Kd [12]: 17 µM
Kd [13]: 10 µM
Kd [5]: 4 µM
Kd [6]: 25 µM
Kd [7]: 15 µM
Kd [14]: 2.8 µM

B23: FITC-KRSFIESNV (TANC1 peptide, unphosphorylated) (peptide)
peptide: {FITC}-KRSFIESNV
notes: C-terminal nine residues of TANC1, human; source: synthetic peptide, bought: GeneCust
Kd [1]: 42 µM
Kd [2]: 2.7 µM

B24: FITC-labeled RPS6KA1 peptide, unphosphorylated (VRKLPSTTL) (peptide)
peptide: VRKLPSTTL
modifications: also: FITC label, position not given here
notes: C-terminal tail of human RPS6KA1; also called unphosphorylated RPS6KA1 peptide; source: synthetic peptide (FITC-labeled)
Kd [11]: 1 µM

B25: FITC-KRSFIESNV, unphosphorylated TANC1 peptide (peptide)
peptide: {FITC}-KRSFIESNV
notes: also called TANC1 Unphosphorylated; source: synthetic peptide (GeneCust)
Kd [10]: 2.7 µM
